# Reference: article PMC12461897 (mAbs, 2025)
# Positions count from the first letter of the chain named.
# B1: MUR35 Fab (anti-C18-MHC TCR-mimic antibody clone MUR35) (Fab, V domains shown)
# VH: EVQLQQSGPELVKPGASVKISCKASGYTFTDHFMNWVRQSHGKSLEWIGDINPNNGGTSYNQKFKGKATLTVDKSSSTAFMEVRSLTSDDSAVYYCARRGYYGSFDYWGQGTTLTVSS
# VL: EIVMTQSPATLSLSPGERATLSCRASQGVSSSYFSWYQQTPGQAPRLLISGASTRATGIPARFSGSGSGTDFTLTISSLQPEDFAVYYCQQDYNLPYTFGQGTKLEIK
# B2: MUR14 Fab (anti-C18-MHC antibody clone MUR14) (Fab, V domains shown)
# VH: EVQLQQSGPELVKPGASVKISCKASGYTFTDYFMNWVKQSHGKSLEWIGDINPNNGGTSYNQKFKGKATLTVDKSSSTAYMELRSLTSEDSAVYYCARGLYDGYYVGFAYWGQGTLVTVSA
# VL: B1 VL with G28S, F34L, T40K, S50Y, I59L, Q90H
# Target: C18-V peptide presented by HLA-A*02:01 on peptide-pulsed T2 cells (Homo sapiens HLA-A*02:01 and B2M (T2 …))
# Assay: flow cytometry on cells
row,Binder,binding result
1,B1,binds
2,B2,binds
